The text below walks through data of the Human Domainome abundance scans (Beltran et al. 2025).

± gives the uncertainty stated by the source.

The labels stand for the following.
B1: Zinc finger homeobox protein 3, residues 2147 to 2202; numbered along this chain, Q15911 (parent)
chain: RPRTRITDDQLRVLRQYFDINNSPSEEQIKEMADKSGLPQKVIKHWFRNTLFKERQ

The variants in the data set derive from B1. Kind of data set: abundance fitness (aPCA) (normalised: wild type 0, dead -1); higher = more abundant; growth selection in yeast, the domain comes from the species named. Particulars: Homo sapiens.
In the case of RPRTRITDDQLRVLRQDFDINNSPSEEQIKEMADKSGLPQKVIKHWFRNTLFKERQ [Y17D], the abundance fitness was -0.184 ± 0.1.
Take RPRTRITDDQLRVLRQAFDINNSPSEEQIKEMADKSGLPQKVIKHWFRNTLFKERQ [Y17A]: the abundance fitness is -0.165 ± 0.077.
To RPRTRITDDQLRVLRQEFDINNSPSEEQIKEMADKSGLPQKVIKHWFRNTLFKERQ [Y17E] belongs -0.168 ± 0.082; to RPRTRITDDQLRVLRQCFDINNSPSEEQIKEMADKSGLPQKVIKHWFRNTLFKERQ [Y17C], -0.204 ± 0.083; to RPRTRITDDQSRVLRQYFDINNSPSEEQIKEMADKSGLPQKVIKHWFRNTLFKERQ [L11S], -0.161 ± 0.073.
As for RPRTRITDDQVRVLRQYFDINNSPSEEQIKEMADKSGLPQKVIKHWFRNTLFKERQ [L11V], the abundance fitness is -0.252 ± 0.071.
The figure for RPRTRITDDQYRVLRQYFDINNSPSEEQIKEMADKSGLPQKVIKHWFRNTLFKERQ [L11Y] is -0.297 ± 0.12; for RPRTRITDDQTRVLRQYFDINNSPSEEQIKEMADKSGLPQKVIKHWFRNTLFKERQ [L11T] it is -0.026 ± 0.095.
The figure for RPRTRITDDQLRVLVQYFDINNSPSEEQIKEMADKSGLPQKVIKHWFRNTLFKERQ [R15V] is -0.226 ± 0.077.
To RPRTRITDDQLRVLMQYFDINNSPSEEQIKEMADKSGLPQKVIKHWFRNTLFKERQ [R15M] belongs -0.023 ± 0.084.
Consider RPRTRITDDQLRVLDQYFDINNSPSEEQIKEMADKSGLPQKVIKHWFRNTLFKERQ [R15D], for which the abundance fitness was -0.29 ± 0.12.
Consider RPRTRITDDQLRVLWQYFDINNSPSEEQIKEMADKSGLPQKVIKHWFRNTLFKERQ [R15W], for which the abundance fitness is -0.125 ± 0.073.
To RPRTRITDDQLRVLEQYFDINNSPSEEQIKEMADKSGLPQKVIKHWFRNTLFKERQ [R15E] belongs -0.048 ± 0.082.
The figure for RPRTRITDDQLRVLFQYFDINNSPSEEQIKEMADKSGLPQKVIKHWFRNTLFKERQ [R15F] is -0.152 ± 0.13; for RPRTRITDDQLRVLKQYFDINNSPSEEQIKEMADKSGLPQKVIKHWFRNTLFKERQ [R15K] it is -0.074 ± 0.091.
For RPRTRITDDQLRVLQQYFDINNSPSEEQIKEMADKSGLPQKVIKHWFRNTLFKERQ [R15Q], the abundance fitness is -0.045 ± 0.08.
The figure for RPRTRITDDQLRVLAQYFDINNSPSEEQIKEMADKSGLPQKVIKHWFRNTLFKERQ [R15A] is -0.23 ± 0.073; for RPRTRITDDQLRVLSQYFDINNSPSEEQIKEMADKSGLPQKVIKHWFRNTLFKERQ [R15S] it is -0.067 ± 0.068.
Turning to RPRTRITDDQLRVLHQYFDINNSPSEEQIKEMADKSGLPQKVIKHWFRNTLFKERQ [R15H], the abundance fitness was determined as 0.099 ± 0.11.
To RPRTRITDDQLRVLLQYFDINNSPSEEQIKEMADKSGLPQKVIKHWFRNTLFKERQ [R15L] belongs -0.244 ± 0.066.
The figure for RPRTRITDDQLRVLPQYFDINNSPSEEQIKEMADKSGLPQKVIKHWFRNTLFKERQ [R15P] is -0.898 ± 0.091.
Consider RPRTRITDDQLRVLYQYFDINNSPSEEQIKEMADKSGLPQKVIKHWFRNTLFKERQ [R15Y], for which the abundance fitness is -0.127 ± 0.13.
As for RPRTRITDDQLRVLGQYFDINNSPSEEQIKEMADKSGLPQKVIKHWFRNTLFKERQ [R15G], the abundance fitness is -0.256 ± 0.067.
To RPRTRITDDQLRVLTQYFDINNSPSEEQIKEMADKSGLPQKVIKHWFRNTLFKERQ [R15T] belongs -0.023 ± 0.084.
To RPRTRITDDQLRKLRQYFDINNSPSEEQIKEMADKSGLPQKVIKHWFRNTLFKERQ [V13K] belongs -0.054 ± 0.083; to RPRTRITDDQLRILRQYFDINNSPSEEQIKEMADKSGLPQKVIKHWFRNTLFKERQ [V13I], 0.097 ± 0.073.
The figure for RPRTRITDDQLRALRQYFDINNSPSEEQIKEMADKSGLPQKVIKHWFRNTLFKERQ [V13A] is -0.22 ± 0.079; for RPRTRITDDQLRRLRQYFDINNSPSEEQIKEMADKSGLPQKVIKHWFRNTLFKERQ [V13R] it is -0.243 ± 0.067.
For RPRTRITDDQLRWLRQYFDINNSPSEEQIKEMADKSGLPQKVIKHWFRNTLFKERQ [V13W], the abundance fitness came out at 0.003 ± 0.096.
The figure for RPRTRITDDQLRSLRQYFDINNSPSEEQIKEMADKSGLPQKVIKHWFRNTLFKERQ [V13S] is -0.033 ± 0.061; for RPRTRITDDQLRTLRQYFDINNSPSEEQIKEMADKSGLPQKVIKHWFRNTLFKERQ [V13T] it is -0.044 ± 0.065.
To RPRTRITDDQLRHLRQYFDINNSPSEEQIKEMADKSGLPQKVIKHWFRNTLFKERQ [V13H] belongs -0.199 ± 0.069.
To RPRTRITDDQLRQLRQYFDINNSPSEEQIKEMADKSGLPQKVIKHWFRNTLFKERQ [V13Q] belongs 0.043 ± 0.076.
RPRTRITDDQLRELRQYFDINNSPSEEQIKEMADKSGLPQKVIKHWFRNTLFKERQ [V13E]: the abundance fitness is -0.01 ± 0.1.
The figure for RPRTRITDDQLRYLRQYFDINNSPSEEQIKEMADKSGLPQKVIKHWFRNTLFKERQ [V13Y] is -0.037 ± 0.071.
To RPRTRITDDQLRLLRQYFDINNSPSEEQIKEMADKSGLPQKVIKHWFRNTLFKERQ [V13L] belongs 0.055 ± 0.061.
To RPRTRITDDQLRCLRQYFDINNSPSEEQIKEMADKSGLPQKVIKHWFRNTLFKERQ [V13C] belongs -0.149 ± 0.075; to RPRTRITDDQLRNLRQYFDINNSPSEEQIKEMADKSGLPQKVIKHWFRNTLFKERQ [V13N], -0.227 ± 0.073.
For RPRTRITDDQLRFLRQYFDINNSPSEEQIKEMADKSGLPQKVIKHWFRNTLFKERQ [V13F], the abundance fitness was -0.012 ± 0.072.
For RPRTRITDDQLRGLRQYFDINNSPSEEQIKEMADKSGLPQKVIKHWFRNTLFKERQ [V13G], the abundance fitness is -0.415 ± 0.078.
As to RPRTRITDDQLRPLRQYFDINNSPSEEQIKEMADKSGLPQKVIKHWFRNTLFKERQ [V13P], the abundance fitness was -0.587 ± 0.068.
To RPRTRITDDQLYVLRQYFDINNSPSEEQIKEMADKSGLPQKVIKHWFRNTLFKERQ [R12Y] belongs -0.4 ± 0.11; to RPRTRITDDQLQVLRQYFDINNSPSEEQIKEMADKSGLPQKVIKHWFRNTLFKERQ [R12Q], -0.082 ± 0.086; to RPRTRITDDQLMVLRQYFDINNSPSEEQIKEMADKSGLPQKVIKHWFRNTLFKERQ [R12M], 0.077 ± 0.083.
The figure for RPRTRITDDQLHVLRQYFDINNSPSEEQIKEMADKSGLPQKVIKHWFRNTLFKERQ [R12H] is -0.128 ± 0.12.
The figure for RPRTRITDDQLDVLRQYFDINNSPSEEQIKEMADKSGLPQKVIKHWFRNTLFKERQ [R12D] is -0.21 ± 0.093; for RPRTRITDDQLAVLRQYFDINNSPSEEQIKEMADKSGLPQKVIKHWFRNTLFKERQ [R12A] it is -0.122 ± 0.069.
